Source: article PMC12004451, “Characterization of the Two-Domain Peptide Binding Mechanism of the Human CGRP Receptor for CGRP and the Ultrahigh Affinity ssCGRP Variant” (Biochemistry, 2025)
Several values for one entry are separate records, joined by “and”; a condition that tells them apart may be missing. Identical values can stand only once. Like-named read-outs stand apart in the source and are kept apart here. Blank lines part the entries; values can stand above or below the molecule they belong to. Ends that are not written are not given here. Peptide text beside a SMILES is read from it. * marks the point of attachment. 5TAMRA = CN(C)c1ccc2c(c1)Oc1cc(N(C)C)ccc1C21OC(=O)c2cc(C(=O)*)ccc21

Columns and labels:
[1] = target: T1, CGRP receptor (Nluc-CLR:RAMP1) (Homo sapiens, UniProt O60894+Q16602); assay: nanoBRET association kinetics of TAMRA probes; assay type: binding; details: association kinetics, 25 °C, mean ± SEM, n=3
T1 construct: N-terminally Nanoluciferase (NLuc)-tagged CLR (pcDNA3.1(+)sec/NanoLuc-GSGIS-CLR.23-461); Wild-type CLR and RAMP expression plasmids were obtained from cDNA.org; sec (vector secretion signal before NanoLuc) (N); expressed in transfected cells; host or cells: COS-7 cells, membrane preparation
Procedure: After 2 days, the cells were washed with PBS and harvested with ice-cold PBS + 5 mM EDTA. The cells were pelleted in a centrifuge at 1000g for 5 min at 4 °C and resuspended in a hypotonic buffer (25 mM NaHEPES pH 7.5, 2 mM MgCl2, 1 mM EDTA, and 1× EDTA-free PIERCE protease inhibitor tablet). After resuspension, cells were homogenized with an Ultra Turrax for 30 s at 10,000 rpm followed by a 10 min incubation. Cell debris was pelleted at 800g for 10 min and the supernatant was transferred to ultracentrifuge tubes and centrifuged at 100,000g for 1 h. Membranes were resuspended in a wash buffer (25 mM NaHEPES pH 7.5, 250 mM NaCl, 2 mM MgCl2, 1 mM EDTA, and 1× protease inhibitor tablet). The homogenization and ultracentrifugation were repeated once more and the membranes were resuspended in storage buffer (25 mM NaHEPES pH 7.5, 25 mM NaCl, 2 mM MgCl2, 10% v/v glycerol, and 1× protease inhibitor tablet). The resuspended membranes were homogenized, aliquoted, and flash frozen in liquid nitrogen for storage at -80 °C. Total protein was quantitated using the DC protein assay (BioRad) per the manufacturer's instructions. The concentration of NLuc-CLR was determined by comparing the membrane prep luminescence to a standard curve using purified NLuc enzyme (Promega; […]). […] Costar 3912). […] The observed association rates (kobs) were plotted against probe concentration and the data was analyzed by linear regression. The kon and koff were obtained as the slope and y-intercept, respectively.

[2] = target: T1, CGRP receptor (Nluc-CLR:RAMP1); assay: nanoBRET dissociation kinetics of TAMRA probes; assay type: binding
Procedure: After 2 days, the cells were washed with PBS and harvested with ice-cold PBS + 5 mM EDTA. The cells were pelleted in a centrifuge at 1000g for 5 min at 4 °C and resuspended in a hypotonic buffer (25 mM NaHEPES pH 7.5, 2 mM MgCl2, 1 mM EDTA, and 1× EDTA-free PIERCE protease inhibitor tablet). After resuspension, cells were homogenized with an Ultra Turrax for 30 s at 10,000 rpm followed by a 10 min incubation. Cell debris was pelleted at 800g for 10 min and the supernatant was transferred to ultracentrifuge tubes and centrifuged at 100,000g for 1 h. Membranes were resuspended in a wash buffer (25 mM NaHEPES pH 7.5, 250 mM NaCl, 2 mM MgCl2, 1 mM EDTA, and 1× protease inhibitor tablet). The homogenization and ultracentrifugation were repeated once more and the membranes were resuspended in storage buffer (25 mM NaHEPES pH 7.5, 25 mM NaCl, 2 mM MgCl2, 10% v/v glycerol, and 1× protease inhibitor tablet). The resuspended membranes were homogenized, aliquoted, and flash frozen in liquid nitrogen for storage at -80 °C. Total protein was quantitated using the DC protein assay (BioRad) per the manufacturer's instructions. The concentration of NLuc-CLR was determined by comparing the membrane prep luminescence to a standard curve using purified NLuc enzyme (Promega; […]). The total protein concentration was 0.91 mg/mL and the NLuc-CLR was 7.35 nM. For dissociation kinetics, the membranes and probe in binding buffer were incubated in a 96-well white plate (Corning; Costar 3912) followed by furimazine addition at 1× for 5 min (75 μL volume). […] The buffer control defined the stability of the signal. […] Unlabeled […](8-37) (4×; 10 μM) or binding buffer was loaded into the injectors and injected into the plate, which was read for 4 h. […](8-37) (4×; 1 μM) or binding buffer was loaded into the injectors and injected into the plate, which was read for 1 h. The BRET ratio 610/460 was plotted against time and the membrane only control was subtracted. The dissociation data were normalized to their corresponding buffer control injections as 100% (100*value/baseline) to account for signal decay with time. The normalized dissociation curves were fit to a one-phase (dashed line) (https://www.graphpad.com/guides/prism/latest/curve-fitting/reg_exponential_[…]) or a two-phase (solid line) (https://www.graphpad.com/guides/prism/latest/curve-fitting/reg_exponential_[…]) exponential decay models in GraphPad Prism to determine the koff.

[3] = target: NLuc-CLR:RAMP1 membranes with 30 μM purified sumo-miniGs (G protein-coupled state of the CGRPR) (UniProt Q16602); assay: FRET or BRET; nanoBRET equilibrium saturation binding; as the uncoupled format but with 30 μM purified sumo-miniGs (G protein coupled state); 4 h; room temperature
[4] = target: NLuc-CLR:RAMP1 (human CGRP receptor, CGRPR), membrane preparation (human) (UniProt Q16602); assay: FRET or BRET; nanoBRET association kinetics; membranes injected into 2-fold serial dilutions of TAMRA probe; 25 °C; one-phase association fits, kobs against probe concentration by linear regression (kon slope, koff intercept); Kd calculated as koff/kon
[5] = target: NLuc-CLR:RAMP1 (human CGRP receptor, CGRPR), membrane preparation (human) (UniProt Q16602)
[6] = target: NLuc-CLR:RAMP1 (human CGRP receptor, CGRPR), membrane preparation (human) (UniProt Q16602); assay: FRET or BRET; nanoBRET competition association kinetics, simultaneous addition of 20 nM CGRP(27-37)*-TAMRA and unlabeled (27-37) peptide; 25 °C; Motulsky-Mahan equation with a signal decay term; Kd calculated as koff/kon
[7] = target: T1, CGRP receptor (Nluc-CLR:RAMP1); assay: nanoBRET equilibrium competition binding, Nluc-CLR:RAMP1 membranes; details: 8 h, room temperature, Cheng-Prusoff, mean ± SEM, n=3
Procedure: After 2 days, the cells were washed with PBS and harvested with ice-cold PBS + 5 mM EDTA. The cells were pelleted in a centrifuge at 1000g for 5 min at 4 °C and resuspended in a hypotonic buffer (25 mM NaHEPES pH 7.5, 2 mM MgCl2, 1 mM EDTA, and 1× EDTA-free PIERCE protease inhibitor tablet). After resuspension, cells were homogenized with an Ultra Turrax for 30 s at 10,000 rpm followed by a 10 min incubation. Cell debris was pelleted at 800g for 10 min and the supernatant was transferred to ultracentrifuge tubes and centrifuged at 100,000g for 1 h. Membranes were resuspended in a wash buffer (25 mM NaHEPES pH 7.5, 250 mM NaCl, 2 mM MgCl2, 1 mM EDTA, and 1× protease inhibitor tablet). The homogenization and ultracentrifugation were repeated once more and the membranes were resuspended in storage buffer (25 mM NaHEPES pH 7.5, 25 mM NaCl, 2 mM MgCl2, 10% v/v glycerol, and 1× protease inhibitor tablet). The resuspended membranes were homogenized, aliquoted, and flash frozen in liquid nitrogen for storage at -80 °C. Total protein was quantitated using the DC protein assay (BioRad) per the manufacturer's instructions. The concentration of NLuc-CLR was determined by comparing the membrane prep luminescence to a standard curve using purified NLuc enzyme (Promega; […]). […] The Cheng-Prusoff correction[30] was used to calculate the Ki from the IC50.

[8] = target: NLuc-CLR:RAMP1 (human CGRP receptor, CGRPR), membrane preparation (human) (UniProt Q16602); assay: FRET or BRET; nanoBRET dissociation kinetics; membranes preincubated with probe (1 nM ssCGRP(8-37)-TAMRA or 10 nM AM2/IMD(8-47)-TAMRA), dissociation started by injection of excess unlabeled ssCGRP(8-37); 25 °C; normalised to buffer control; two-phase exponential decay
[9] = target: NLuc-CLR:RAMP1 (human CGRP receptor, CGRPR), membrane preparation (human) (UniProt Q16602); assay: FRET or BRET; nanoBRET equilibrium saturation binding; 3-fold serial dilutions of TAMRA probe with NLuc-CLR:RAMP1 membranes (0.01 mg/mL total protein, 0.08 nM NLuc-CLR) and 50 μM GTPγS (uncoupled state); 2 h or 4 h; room temperature; 25 mM NaHEPES pH 7.4, […] NaCl, 5 mM KCl, 1 mM KH2PO4, 3 mM MgSO4, 2 mM CaCl2, 1 mg/mL FAF-BSA, 50 μg/mL saponin; one-site specific binding fit
[10] = target: NLuc-CLR:RAMP1 (human CGRP receptor, CGRPR) in COS-7 membranes (human) (UniProt Q16602); assay: FRET or BRET; nanoBRET association kinetics of TAMRA probe on NLuc-CLR:RAMP1 COS-7 membranes, 25 C; kobs against probe concentration, linear regression; Kd calculated as koff/kon
[11] = target: NLuc-CLR:RAMP1 (human CGRP receptor, CGRPR) in COS-7 membranes (human) (UniProt Q16602); assay: FRET or BRET; nanoBRET equilibrium saturation binding of TAMRA probe to NLuc-CLR:RAMP1 COS-7 membranes (0.08 nM NLuc-CLR), G protein uncoupled state with 50 uM GTPgammaS, room temperature, 25 mM NaHEPES pH 7.4, […] NaCl; one-site specific binding fit
[12] = 1/koff slow, two-phase dissociation, read-out: Residence time slow

Molecule: AM2/IMD(8-47)-TAMRA (peptide)
Kd [3]: 6.5 nM
Kd [4]: 8.1 nM
half-life [4]: 1.6 min

Molecule: VTHRLAGLLSRSGGVVKNNFVPTDVGPWSF-NH2 [ssCGRP(8-37)]
Ki ([7]; G protein coupled state (30 μM sumo-miniGs), 3 nM AM2/IMD(8-47)-TAMRA probe, read-out: Ki + mGs): 0.6 ± 0.05 nM
Ki ([7]; G protein uncoupled state (50 μM GTPγS), 30 nM AM2/IMD(8-47)-TAMRA probe, read-out: Ki + GTPγS): 0.43 ± 0.02 nM
residence time [2, 12]: 76 min
affinity (summary, both receptor states): 0.5 nM

Molecule: αCGRP(8-37) (peptide)
apparent melting temperature of LMNG/CHS-solubilised MBP-CLR-EGFP:MBP-RAMP1 heterodimer, native PAGE thermostability assay (ligand-free 38.2 °C) [5]: 43.6 °C

Molecule: αCGRP(8-37) N26K-TAMRA/N31D/S34P/K35W/A36S (peptide)
Kd [4]: 0.085 nM
half-life [4]: 38 min
koff [4]: 0.0003 s⁻¹
kon [4]: 3.62e+06 M⁻¹ s⁻¹
half-life of the fast component [8]: 13 min
half-life of the slow component [8]: 52 min
koff fast [8]: 0.053 min^–1
koff slow [8]: 0.013 min^–1
residence time (1/koff slow) [8]: 76 min
residence time of the fast component [8]: 19 min
Kd [9]: 0.4 nM

Continued, values first:

kon ([1]; kobs vs probe concentration, slope of linear regression, fit of first 10 min (full 1 h 15 min for ssCGRP(8-37)-TAMRA)): 3.62e+06 M⁻¹ s⁻¹
koff ([1]; y-intercept of kobs vs probe concentration): 0.0003 s⁻¹
residence time ([2]; 1/koff fast, two-phase dissociation, read-out: Residence time fast): 19.1 ± 1.9 min
residence time [2, 12]: 75.7 ± 3.49 min
t1/2 fast ([2]; ln 2/koff fast, two-phase dissociation): 13.25 ± 1.32 min and 13 min
t1/2 slow ([2]; ln 2/koff slow, two-phase dissociation): 52.45 ± 2.42 min and 52 min
Percent fast ([2]; share of the fast component, two-phase dissociation): 25.6 ± 3.5% and 25.6%
koff ([2]; two-phase exponential decay, same conditions as koff fast, mean ± SEM, n=3): 0.000222 s⁻¹
Molecule: CC(C)C[C@H](NC(=O)CNC(=O)[C@H](C)NC(=O)[C@H](CC(C)C)NC(=O)[C@H](CCCNC(=N)N)NC(=O)[C@H](Cc1c[nH]cn1)NC(=O)[C@@H](NC(=O)[C@@H](N)C(C)C)[C@@H](C)O)C(=O)N[C@@H](CC(C)C)C(=O)N[C@@H](CO)C(=O)N[C@@H](CCCNC(=N)N)C(=O)N[C@@H](CO)C(=O)NCC(=O)NCC(=O)N[C@H](C(=O)N[C@H](C(=O)N[C@@H](CCCCN)C(=O)N[C@@H](CC(N)=O)C(=O)N[C@@H](CCCCNC(=O)c1ccc2c(c1)C(=O)OC21c2ccc(N(C)C)cc2Oc2cc(N(C)C)ccc21)C(=O)N[C@@H](Cc1ccccc1)C(=O)N[C@H](C(=O)N1CCC[C@H]1C(=O)N[C@H](C(=O)N[C@@H](CC(=O)O)C(=O)N[C@H](C(=O)NCC(=O)N1CCC[C@H]1C(=O)N[C@@H](Cc1c[nH]c2ccccc12)C(=O)N[C@@H](CO)C(=O)N[C@@H](Cc1ccccc1)C(N)=O)C(C)C)[C@@H](C)O)C(C)C)C(C)C)C(C)C [ssCGRP(8-37)-TAMRA, αCGRP(8-37) N26K-TAMRA/N31D/S34P/K35W/A36S] (H-VTHRLAGLLSRSGGVVKNK(5TAMRA)FVPTDVGPWSF-NH2; N-terminus assumed)

apparent melting temperature of LMNG/CHS-solubilised MBP-CLR-EGFP:MBP-RAMP1 heterodimer, native PAGE thermostability assay (ligand-free 38.2 °C) [5]: 39.8 °C
half-life [6]: 0.06 min
Molecule: CGRP(27-37) (peptide)

Kd [10]: 22.5 nM
Kd [11]: 28.7 nM
Kd [4]: 22.5 nM
half-life [4]: 0.183 min
koff [4]: 0.0635 s⁻¹
kon [4]: 2.75e+06 M⁻¹ s⁻¹
Kd [9]: 28.7 nM
Molecule: αCGRP(27-37) N31D/S34P/K35-TAMRA/A36S/F37Y (peptide)
